Data reported in patent US20200024330A1.

Experiments:
Experiment in all cases: cell-based or functional assay
[1] = molecular target: HIV-1 Env of isolate 93MW959 (pseudovirus) (HIV-1 isolate 93MW959, subtype C)
[2] = molecular target: HIV-1 JRFL envelope glycoprotein (Env) on pseudovirus (HIV-1)
[3] = molecular target: HIV-1 MGRM-D-001 envelope glycoprotein (Env) on pseudovirus (HIV-1)
[4] = molecular target: HIV-1 Env of isolate MG RM-AG-005 (HIV-1)
[5] = molecular target: HIV-1 Env of isolate 92UG005 (subtype D) (HIV-1)
[6] = molecular target: HIV-1 APV17 envelope glycoprotein (Env) on pseudovirus (HIV-1)
[7] = molecular target: HIV-1 MGRM-AG-005 envelope glycoprotein (Env) on pseudovirus (HIV-1)
[8] = molecular target: HIV-1 MGRM-D-001 Env (on pseudovirus) (HIV-1)
[9] = molecular target: HIV-1 envelope glycoprotein (Env) of isolate MGRM-C-024, on pseudovirus (HIV-1)
[10] = molecular target: HIV-1 envelope glycoprotein (Env) of isolate MGRM-C-020, on pseudovirus (HIV-1)
[11] = molecular target: HIV-1 APV17 Env (on pseudovirus) (HIV-1)
[12] = molecular target: HIV-1 envelope glycoprotein (Env) of isolate MGRM-C-022, on pseudovirus (HIV-1)
[13] = molecular target: HIV-1 92UG024 Env (on pseudovirus) (HIV-1)
[14] = molecular target: aMLV envelope protein (on pseudovirus, negative control) (aMLV)
[15] = molecular target: HIV-1 93UG077 Env (on pseudovirus) (HIV-1)
[16] = molecular target: HIV-1 CMU02 Env (on pseudovirus) (HIV-1)
[17] = molecular target: HIV-1 93IN905 Env (on pseudovirus) (HIV-1)
[18] = molecular target: HIV-1 MGRM-C-027 Env (on pseudovirus) (HIV-1)
[19] = molecular target: HIV-1 JRFL Env (on pseudovirus) (HIV-1)
[20] = molecular target: HIV-1 NL43 Env (on pseudovirus) (HIV-1)
[21] = molecular target: HIV-1 envelope glycoprotein (Env) of isolate MGRM-C-015, on pseudovirus (HIV-1)
[22] = molecular target: HIV-1 MGRM-D-018 Env (on pseudovirus) (HIV-1)
[23] = molecular target: HIV-1 envelope glycoprotein (Env) of isolate MGRM-C-019, on pseudovirus (HIV-1)
[24] = molecular target: HIV-1 94UG103 Env (on pseudovirus) (HIV-1)
[25] = molecular target: HIV-1 Env of isolate MGRM-D-026 (HIV-1)
[26] = molecular target: HIV-1 Env of isolate MGRM-F1-010 (HIV-1)
[27] = molecular target: HIV-1 Env of isolate MGRM-F1-012 (HIV-1)
[28] = molecular target: HIV-1 Env of isolate MGRM-F1-006 (HIV-1)
[29] = molecular target: HIV-1 Env of isolate MGRM-F1-004 (HIV-1)
[30] = molecular target: HIV-1 IAVI-C18 envelope glycoprotein (Env) on pseudovirus (HIV-1)
[31] = molecular target: HIV-1 IAVI-C22 envelope glycoprotein (Env) on pseudovirus (HIV-1)
[32] = molecular target: HIV-1 APV-6 envelope glycoprotein (Env) on pseudovirus (HIV-1)

PGT-143 (4980_N08) (antibody), sequence (VH): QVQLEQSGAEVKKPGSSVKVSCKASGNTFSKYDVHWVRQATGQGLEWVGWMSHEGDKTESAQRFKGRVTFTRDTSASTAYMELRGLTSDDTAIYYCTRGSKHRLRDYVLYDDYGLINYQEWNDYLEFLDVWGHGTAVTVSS
PGT-143 (4980_N08) (antibody), sequence (VL): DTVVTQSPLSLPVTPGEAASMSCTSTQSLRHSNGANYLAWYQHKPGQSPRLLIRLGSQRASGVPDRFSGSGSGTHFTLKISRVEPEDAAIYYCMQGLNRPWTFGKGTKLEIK
PGT-142 (4995_E20) (antibody), sequence (VH): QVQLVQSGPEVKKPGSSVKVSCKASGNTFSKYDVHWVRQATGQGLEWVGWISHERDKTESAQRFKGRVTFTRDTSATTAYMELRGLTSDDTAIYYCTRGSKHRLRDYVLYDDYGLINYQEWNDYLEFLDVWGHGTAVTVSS
PGT-142 (4995_E20) (antibody), sequence (VL): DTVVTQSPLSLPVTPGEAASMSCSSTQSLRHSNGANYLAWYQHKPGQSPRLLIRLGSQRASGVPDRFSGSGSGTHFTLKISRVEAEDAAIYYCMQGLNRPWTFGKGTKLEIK
PGT-144 (4970_K22) (antibody), sequence (VH): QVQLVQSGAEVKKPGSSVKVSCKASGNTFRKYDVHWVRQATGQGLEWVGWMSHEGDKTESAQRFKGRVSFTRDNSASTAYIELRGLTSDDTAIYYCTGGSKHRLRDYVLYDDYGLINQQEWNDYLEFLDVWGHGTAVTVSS
PGT-144 (4970_K22) (antibody), sequence (VL): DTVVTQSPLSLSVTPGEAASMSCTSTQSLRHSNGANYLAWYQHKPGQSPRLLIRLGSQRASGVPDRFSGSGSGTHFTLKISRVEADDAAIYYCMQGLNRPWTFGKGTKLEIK
PGT-141 (4964_G22; 4993_K13) (antibody), sequence (VH): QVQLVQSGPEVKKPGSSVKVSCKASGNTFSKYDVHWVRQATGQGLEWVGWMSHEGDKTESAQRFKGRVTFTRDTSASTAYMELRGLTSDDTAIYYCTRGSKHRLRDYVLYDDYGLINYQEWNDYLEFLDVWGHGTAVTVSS

Substance	IC50 (ug/ml), pseudovirus neutralization [8] [µg/mL]	IC50, pseudovirus neutralization [9] [µg/mL]	IC50, pseudovirus neutralization [10] [µg/mL]	IC50 (ug/ml), pseudovirus neutralization [11] [µg/mL]	IC50, pseudovirus neutralization [12] [µg/mL]	IC50 (ug/ml), pseudovirus neutralization [13] [µg/mL]	IC50 (ug/ml), pseudovirus neutralization [14] [µg/mL]	IC50 (ug/ml), pseudovirus neutralization [15] [µg/mL]	IC50 (ug/ml), pseudovirus neutralization [16] [µg/mL]	IC50 (ug/ml), pseudovirus neutralization [17] [µg/mL]	IC50 (ug/ml), pseudovirus neutralization [18] [µg/mL]	IC50 (ug/ml), pseudovirus neutralization [19] [µg/mL]	IC50 (ug/ml), pseudovirus neutralization [20] [µg/mL]	IC50, pseudovirus neutralization [21] [µg/mL]	IC50 (ug/ml), pseudovirus neutralization [22] [µg/mL]	IC50, pseudovirus neutralization [23] [µg/mL]	IC50 (ug/ml), pseudovirus neutralization [24] [µg/mL]	other results
5141_B17 (PGT-126) (antibody)	–	–	–	–	–	–	–	–	–	–	–	–	–	–	–	–	–	IC50 (µg/mL) neutralization [1]: 9.44 µg/mL; IC50 (ug/ml), neutralizing activity [2]: 0.014 µg/mL; IC50 (ug/ml), neutralizing activity [3]: 0.0639 µg/mL; neutralization IC50 [4]: 1.21 µg/mL; IC50 (µg/mL), pseudovirus neutralization [5]: 0.037 µg/mL; IC50 (ug/ml), neutralizing activity [6]: 0.501 µg/mL; IC50 (ug/ml), neutralizing activity [7]: 1.35 µg/mL
5145_B14 (PGT-127) (antibody)	–	–	–	–	–	–	–	–	–	–	–	–	–	–	–	–	–	IC50 (µg/mL) neutralization [1]: 6.95 µg/mL; neutralization IC50 [4]: > 50 µg/mL; IC50 (µg/mL), pseudovirus neutralization [5]: 1.11 µg/mL
5147_N06 (PGT-130) (antibody)	–	–	–	–	–	–	–	–	–	–	–	–	–	–	–	–	–	IC50 (ug/ml), neutralizing activity [2]: 0.0346 µg/mL; IC50 (ug/ml), neutralizing activity [3]: > 10 µg/mL; IC50 (ug/ml), neutralizing activity [6]: > 10 µg/mL; IC50 (ug/ml), neutralizing activity [7]: 0.947 µg/mL
PGT-141 (4964_G22; 4993_K13) (antibody)	> 10	0.101	1.34	0.616	0.381	> 10	> 10	> 10	> 10	0.0016	0.822	> 10	0.856	0.033	> 10	0.008	> 10	–
PGT-142 (4995_E20) (antibody)	> 10	0.03	0.446	0.393	0.086	> 10	> 10	> 10	> 10	0.0017	0.272	> 10	0.712	0.038	> 10	0.003	> 10	–
PGT-143 (4980_N08) (antibody)	> 10	0.05	0.797	0.618	0.103	> 10	> 10	> 10	> 10	0.0021	0.505	> 10	0.585	0.085	> 10	0.004	> 10	–
PGT-144 (4970_K22) (antibody)	> 10	2.06	1.29	5.12	2.58	> 10	> 10	> 10	> 10	0.158	> 10	> 10	> 10	0.236	> 10	0.513	> 10	–
VRC01 (antibody)	–	3.4	0.396	–	13	–	–	–	–	–	–	–	–	1.57	–	1.13	–	IC50, pseudovirus neutralization [25]: 0.435 µg/mL; IC50, pseudovirus neutralization [26]: 0.097 µg/mL; IC50, pseudovirus neutralization [27]: 0.488 µg/mL; IC50, pseudovirus neutralization [28]: 2.86 µg/mL; IC50, pseudovirus neutralization [29]: 0.305 µg/mL
b12 (antibody)	–	–	–	–	–	–	–	–	–	–	–	–	–	–	–	–	–	IC90 (pseudovirus neutralization) [30]: > 50 µg/mL; IC90 (pseudovirus neutralization) [31]: 29.6 µg/mL; IC90 (pseudovirus neutralization) [32]: > 50 µg/mL
